Target: human GLP-1R (human, UniProt P43220)
Test: cell-based or functional assay

Chain of human GLP-1R (P43220 24-463): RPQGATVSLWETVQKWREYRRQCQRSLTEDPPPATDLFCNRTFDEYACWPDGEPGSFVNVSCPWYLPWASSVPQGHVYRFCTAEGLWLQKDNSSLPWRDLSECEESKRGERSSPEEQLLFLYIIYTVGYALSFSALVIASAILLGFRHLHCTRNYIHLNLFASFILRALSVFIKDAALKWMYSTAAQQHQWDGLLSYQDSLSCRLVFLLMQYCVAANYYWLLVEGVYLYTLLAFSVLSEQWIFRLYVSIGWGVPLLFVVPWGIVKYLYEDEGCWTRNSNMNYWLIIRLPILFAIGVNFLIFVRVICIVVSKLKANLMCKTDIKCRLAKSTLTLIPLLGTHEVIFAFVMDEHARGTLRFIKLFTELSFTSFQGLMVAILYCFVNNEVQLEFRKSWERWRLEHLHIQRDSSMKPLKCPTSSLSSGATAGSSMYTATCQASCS

IC50 of inhibition of GLP-1-mediated cAMP accumulation (Flashplate assay, BHK cells over-expressing human GLP-1R); blocks GLP-1 with GLP-1R: ~10 nM
B1: mAb 3F52 (antibody, V domains shown)
VH: DVQLQESGPGLVKPSQSLSLTCTVTGYSITSTYDWHWIRHFPGNILEWMGYISYSGSTNYNPSLKSRISITHDTSKNRFFLKLNSVTSEDTATYYCARATASFYDGSYYFDYWGQGTTLTVSS
VL: DIQMTQTTSSLSASLGDRVTISCRASQDISNYLNWYQQKPDGTVKLLIYYTSRLHSGVPSRFSGSGSGTDYSLTISSLEQEDVATYFCQQGNTLPFTFGSGTKLEIK

Reference: article PMC4872540, “Structural insight into antibody-mediated antagonism of the Glucagon-like peptide-1 Receptor” (Scientific Reports, 2016)
